{"source": "patent US20130202594A1", "about": "“ALK1 Antagonists and Their Uses in Treating Renal Cell Carcinoma” (priority 2012, published 2013)", "molecules": {"B1": {"name": "GDF7: growth differentiation factor, ALK1 ligand tested in CAM assay (protein)", "chain": "TALAGTRTAQGSGGGAGRGHGRRGRSRCSRKPLHVDFKELGWDDWIIAPLDYEAYHCEGLCDFPLRSHLEPTNHAIIQTLLNSMAPDAAPASCCVPARLSPISILYIDAANNVVYKQYEDMVVEACGCR"}, "B2": {"name": "rhB9: recombinant human BMP9 (protein)", "chain": "SAGAGSHCQKTSLRVNFEDIGWDSWIIAPKEYEAYECKGGCFFPLADDVTPTKHAIVQTLVHLKFPTKVGKACCVPTKLSPISVLYKDDMGVPTLKYHYEGMSVAECGCR"}}, "key": {"advanced RCC": {"tested_on": "advanced RCC", "settings": "cited from earlier work"}, "[1]": {"tested_on": "angiogenesis in chick chorioallantoic membrane", "test": "CAM (chick chorioallantoic membrane) angiogenesis assay", "assay_type": "in vivo", "text": "In preferred embodiments, an ALK1 ECD polypeptide binds to one or more of GDF5, GDF6, GDF7, BMP9 and BMP10. […] Binding may be assessed using purified proteins in solution or in a surface plasmon resonance system, such as a Biacore™ system. […] Bioassays for angiogenesis inhibitory activity include the chick chorioallantoic membrane (CAM) assay, the mouse corneal micropocket assay, or an assay known in the art for measuring the effect of administering isolated or synthesized proteins on implanted tumors. The CAM assay is described by O'Reilly, et al., in “Angiogenic Regulation of Metastatic Growth” Cell, 1994; 79 (2):315-328. Briefly, 3 day old chicken embryos with intact yolks are separated from the egg and placed in a petri dish. After 3 days of incubation, a methylcellulose disc containing the protein to be tested is applied to the CAM of individual embryos. After 48 hours of incubation, the embryos and CAMs are observed to determine whether endothelial growth has been inhibited. The mouse corneal micropocket assay involves implanting a growth factor-containing pellet, along with another pellet containing the suspected endothelial growth inhibitor, in the cornea of a mouse and observing the pattern of capillaries that are elaborated in the cornea. Other assays are described in the Examples.\nVEGF and FGF are well-known to stimulate angiogenesis. A CAM (chick chorioallantoic membrane) assay system was used to assess the angiogenic effects of GDF7.\nALK1-Fc fusions were tested for anti-angiogenic activity in the CAM assay.\nALK1-Fc proteins and a commercially available, anti-angiogenic anti-VEGF monoclonal antibody were compared in the CAM assay. The ALK1-Fc proteins had similar potency as compared to anti-VEGF. The anti-VEGF antibody bevacizumab is currently used in the treatment of cancer and macular degeneration in humans."}, "[2]": {"tested_on": "collagen-induced arthritis", "test": "Murine collagen-induced arthritis (CIA) model of rheumatoid arthritis", "assay_type": "in vivo, mouse", "settings": "bevacizumab treated mice; day 42", "experimental": "RAP-041 is mALK1-Fc. Avastin™ is the anti-VEGF antibody bevacizumab.\nThe murine collagen-induced arthritis model is a well-accepted model of rheumatoid arthritis. […] Nonetheless, a dose-related trend is apparent.\nBy study termination at day 42 the incidence of arthritis had reached 10/10 in the vehicle control treated mice, 9/10 in the bevacizumab treated mice, 8/10 in the mALK1-Fc at 1 mg/kg treated group and 9/10 in the mALK1-Fc 10 mg/kg treated group. In the mALK1-Fc 25 mg/kg treated group disease incidence was lower at 6/10."}, "[3]": {"tested_on": "angiogenesis in chick chorioallantoic membrane", "test": "CAM assay of BMP9 and anti-BMP9 with or without VEGF", "assay_type": "in vivo", "settings": "for effect on angiogenesis in the presence of VEGF: VEGF-mediated angiogenesis", "text": "A CAM (chick chorioallantoic membrane) assay system was used to assess the angiogenic effects of recombinant human BMP9 (rhB9) and anti-BMP9 monoclonal antibody (mabB9) (R&D Systems, Minneapolis, Minn., Cat. No. MAB3209). This antibody is known to neutralize BMP9/ALK1 signaling. See, e.g., Scharpfenecker et al., J Cell Sci. 2007 Mar. 15; 120(Pt 6):964-72; David et al., (2007); Blood March 1; 109(5):1953-61; David et al., Circ. Res. 2008 Apr. 25; 102(8):914-22.\nIn the absence of VEGF, both proteins were used at the 50 ng dosed 1×/day on days 1 and 3 in the 5-day cycle. […] However, the effects of the anti-BMP9 antibody are in remarkable contrast to the published literature."}}, "note": "“Also recorded” adds a separate entry of the source.", "data": [{"molecule": "CCN(CC)CCNC(=O)c1c(C)[nH]c(/C=C2\\C(=O)Nc3ccc(F)cc32)c1C", "note": "[sunitinib]", "values": [{"measurement": "patients requiring dose reductions", "setting": "advanced RCC; RCC patients, to manage toxicities", "result": 50, "unit": "%"}]}, {"molecule": "PDGF", "values": [{"measurement": "angiogenic effect (stimulation of angiogenesis)", "setting": "[1]", "result": "relatively poor capability to induce angiogenesis"}]}, {"molecule": "bevacizumab", "values": [{"measurement": "incidence of arthritis", "setting": "[2]", "result": "9/10"}]}, {"molecule": "interferon-alpha", "values": [{"measurement": "overall survival", "setting": "advanced RCC; patients with advanced disease", "result": 21.8, "unit": "months"}]}, {"molecule": "B1", "values": [{"measurement": "angiogenic effect (stimulation of angiogenesis)", "setting": "[1]", "result": "stimulates angiogenesis with a potency that is similar to that of VEGF; also recorded: comparable to that of VEGF"}]}, {"molecule": "B2", "values": [{"measurement": "angiogenic effect (stimulation of angiogenesis)", "setting": "[1]", "result": "relatively poor capability to induce angiogenesis"}, {"measurement": "effect on angiogenesis in the absence of exogenous VEGF", "setting": "[3]; 50 ng 1×/day on days 1 and 3", "result": "Neither BMP9 nor anti-BMP9 had a substantial effect on angiogenesis"}, {"measurement": "effect on angiogenesis in the presence of VEGF", "setting": "[3]", "result": "inhibit VEGF-mediated angiogenesis"}, {"measurement": "effect on angiogenesis in the presence of VEGF", "setting": "[3]; listed as BMP9", "result": "substantial anti-angiogenic effect"}]}]}
